The results in this text go back to US20050260568A1, “Hepatitis C virus assays” (priority 2004, published 2005).

The test system of one data set is Huh-7 replicon cells. As to the kind of experiment: Alamar Blue cytotoxicity assay. The format is cell-based. As to conditions: lower concentrations of IFN-α (100, 10, 1 units). On the procedure:
(§1) Subsequent to addition of the test compounds described above (FRET Assay Preparation), at various times the plate was removed and Alamar Blue solution (Trek Diagnostics, #00-100) was added per well as a measure of cellular toxicity. After reading in a Cytoflour 4000 instrument (PE Biosystems), plates were rinsed with PBS and then used for FRET assay by the addition of 30 ul of the FRET peptide assay reagent described above (FRET Assay Preparation) per well. The plate was then placed into the Cytoflour 4000 instrument which had been set to 340 excite/490 emission, automatic mode for 20 cycles and the plate read in a kinetic mode. Typically, the signal to noise using an endpoint analysis after the reads was at least three-fold.
Compound analysis was determined by quantification of the relative HCV replicon inhibition and the relative cytotoxicity values. To calculate cytotoxicity values, the average Alamar Blue fluorescence signals from the control wells in row 11 (FIG. 4) were set as 100% non-toxic. The individual signals in each of the compound test wells were then divided by the average control signal and multiplied by 100% to determine […]. To calculate the HCV replicon inhibition values, an average background value FRET signal was obtained from the two wells containing the highest amount of interferon at the end of the assay period. […]

For the next data set, the system named is HCV replicon. Briefly: HCV replicon FRET assay (NS3 protease activity as indirect measure of HCV RNA replication). The format is cell-based, Hepatitis C virus. The conditions noted are these: FIG. 7A IFN-α control titration 1000 to 1 units.
Source text: To perform the HCV FRET screening assay, 96-well cell culture plates were used. The FRET peptide (Anaspec, Inc.) (Taliani et al., Anal. Biochem. 240:60-67 (1996), expressly incorporated by reference in its entirety) contains a fluorescence donor, EDANS, near one end of the peptide and an acceptor, DABCYL, near the other end. The fluorescence of the peptide is quenched by intramolecular resonance energy transfer (RET) between the donor and the acceptor, but as the NS3 protease cleaves the peptide the products are released from RET quenching and the fluorescence of the donor becomes apparent. […]
as §1, with “three-fold. […]” for “three-fold.”
In general terms: In antiviral work, replicon cells carry a viral genome segment that copies itself.

As for Interferon alpha [IFN-α], the “cytotoxicity (Alamar Blue staining change)” value with Huh-7 replicon cells is given as “no apparent Alamar Blue staining change”. In the data set on HCV replicon, the “EC50 in control samples of random compound plate (FRET)” value is “close to or slightly lower than the lowest concentration of IFN-α used”.
